Measured values reported in US20180298101A1 (published 2018).
Where two headings read alike, the source gives them in different places. Non-standard residues stand in square brackets, D forms with d. No end group written: not given here. pY = N[C@@H](Cc1ccc(OP(=O)(O)O)cc1)C(=O)O

How the values were obtained:
Experiment in all cases: ITC
[1] = target: T1, human CIS lacking both the N-terminal region (residues 1-66) and the PEST motif (ΔNT/ΔPEST) in trimeric … (UniProt Q9NSE2 67-258; Q15370 1-118; Q15369 17-112)
[2] = target: T2, hCIS-SH2-BC complex (ternary complex of human GST-CIS-SH2 construct, residues 66-258 with PEST region 174-202 … (UniProt Q9NSE2 66-258; Q15370 1-118; P83940 17-112)
[3] = target: T2, hCIS-SH2-BC complex (ternary complex of …); remark: listed apart in the source
[4] = target: T1, human CIS lacking both the N-terminal …; remark: listed apart in the source
[5] = target: human full-length CIS in trimeric complex with elongin B and elongin C (UniProt Q9NSE2 1-258; Q15370 1-118; Q15369 17-112)
[6] = target: human CIS lacking the PEST motif (ΔPEST) in trimeric complex with elongin B and elongin C (UniProt Q9NSE2 1-258; Q15370 1-118; Q15369 17-112)

| Binder | Kd [1] | Kd [2] | Kd [3] | further results |
| --- | --- | --- | --- | --- |
| AIETAKE[pY]YTVKDDRD [JAK1-Y1034 phosphopeptide with an alanine substitution at the -3 position] | 3.5 µM |  |  |  |
| CQV[pY]FTYDPYSE [IL-2Rβ cytoplasmic domain phosphopeptide (Tyr355 phosphorylated)] |  | 940 nM | 940 nM |  |
| AIETDKE[pY]YTVKADRD [JAK1-Y1034 phosphopeptide with an alanine substitution at the +5 position] | 6.3 µM |  |  |  |
| DDA[pY]CTFPSRDD [IL-2Rβ cytoplasmic domain phosphopeptide (Tyr392 phosphorylated)] |  | 1800 nM | 1800 nM |  |
| AIETDKE[pY]YTAKDDRD [JAK1-Y1034 phosphopeptide with an alanine substitution at the +3 position] | 8.3 µM |  |  |  |
| LLPLDKDYYVVREPGQ (not fully specified (residue 8)) [JAK3 activation loop phosphopeptide (Tyr980 phosphorylated)] |  |  | 800 nM |  |
| AIETDKE[pY]YTVKDDRD [JAK1 activation loop phosphopeptide (Tyr1034 phosphorylated)] | 2.2 µM |  | 2100 nM | Kd [4]: 2200 nM; Kd [5]: 5.3 µM; Kd [6]: 5.3 µM |
| YDP[pY]SEEDPDEG [IL-2Rβ cytoplasmic domain phosphopeptide (Tyr361 phosphorylated)] |  | 1500 nM | 1500 nM |  |
